Results: patent publication US20230192896A1

Experiments:
Test in all cases: not given (FIG. 24A)
[1] = target: activated Factor X (FXa) (Homo sapiens (Human)) (UniProt P00742)
[2] = target: free FIXa (activated Factor IX) (human) (UniProt P00740)
FX zymogen = FX zymogen (UniProt P00742)
[3] = target: FIX zymogen (non-activatable FIX) (UniProt P00740)

Sequence of activated Factor X (FXa) (Homo sapiens (Human)) (P00742 41-179, chain 1 of 2): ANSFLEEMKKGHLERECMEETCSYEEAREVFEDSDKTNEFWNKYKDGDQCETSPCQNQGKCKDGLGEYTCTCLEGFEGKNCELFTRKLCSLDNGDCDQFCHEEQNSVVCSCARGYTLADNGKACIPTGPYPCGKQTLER
Sequence of activated Factor X (FXa) (Homo sapiens (Human)) (P00742 235-488, chain 2 of 2): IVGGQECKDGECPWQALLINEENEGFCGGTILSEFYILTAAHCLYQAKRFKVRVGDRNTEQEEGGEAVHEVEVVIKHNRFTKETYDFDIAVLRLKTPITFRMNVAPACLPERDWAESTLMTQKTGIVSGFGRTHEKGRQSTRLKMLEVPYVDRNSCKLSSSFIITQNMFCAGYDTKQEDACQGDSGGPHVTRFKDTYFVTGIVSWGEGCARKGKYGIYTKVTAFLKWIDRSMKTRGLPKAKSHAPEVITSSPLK
Sequence of FX zymogen (P00742 41-179, chain 1 of 2): as the sequence (P00742 41-179, chain 1 of 2) above
Sequence of FX zymogen (P00742 183-488, chain 2 of 2): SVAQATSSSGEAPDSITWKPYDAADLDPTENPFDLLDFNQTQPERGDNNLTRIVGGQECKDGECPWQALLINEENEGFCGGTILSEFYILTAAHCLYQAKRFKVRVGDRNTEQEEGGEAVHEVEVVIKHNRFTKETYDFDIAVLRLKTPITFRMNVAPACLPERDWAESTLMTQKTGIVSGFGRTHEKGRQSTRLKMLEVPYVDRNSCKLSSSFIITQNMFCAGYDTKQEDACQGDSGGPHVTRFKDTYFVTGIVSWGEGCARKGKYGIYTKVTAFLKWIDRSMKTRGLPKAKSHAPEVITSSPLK

Kd [1]: 1000 nM | Kd [2]: 1000 nM | Kd (FX zymogen): 1000 nM | Kd [3]: 1000 nM
Substance: emicizumab (ACE910) sequence identical bispecific antibody (emicizumab biosimilar)
